# According to publication PMC4334965, “Molecular Bases of Catalysis and ADP-Ribose Preference of Human Mn^2+-Dependent ADP-Ribose/CDP-Alcohol Diphosphatase and Conversion by Mutagenesis to a Preferential Cyclic ADP-Ribose Phosphohydrolase” (PLoS ONE, 2015):
# Experiments:
# Type in all cases: biochemical, Homo sapiens
# Conditions in all cases: 5 mM MnCl2, pH 7.5, 37°C
# [1] = substrate: C[N+](C)(C)CCOP(=O)(O)OP(=O)([O-])OC[C@H]1O[C@@H](n2ccc(N)nc2=O)[C@H](O)[C@@H]1O; assay: colorimetric Pi assay coupled to alkaline phosphatase, saturation kinetics
# Text: (§1) colorimetric Pi assay coupled to alkaline phosphatase, saturation kinetics on human ADPRibase-Mn
# [2] = substrate: N=c1c2ncn3c2ncn1[C@@H]1O[C@H](COP(=O)(O)OP(=O)(O)OC[C@H]2O[C@@H]3[C@H](O)[C@@H]2O)[C@@H](O)[C@H]1O; assay: HPLC of N1-(5-phosphoribosyl)-AMP formed, saturation kinetics
# Text: HPLC of N1-(5-phosphoribosyl)-AMP formed, saturation kinetics on human ADPRibase-Mn
# [3] = substrate: Nc1ncnc2c1ncn2[C@@H]1O[C@H](CO)[C@H]2OP(=O)(O)O[C@H]21; assay: colorimetric Pi assay coupled to alkaline phosphatase, saturation kinetics
# Text: as §1
Protein,Km [1],kcat [1],kcat/Km [1],Km [2],kcat [2],kcat/Km [2],Km [3],kcat [3],kcat/Km [3]
"human ADPRibase-Mn (Homo sapiens; H111A) (protein, full length, 342 aa; expressed as GST fusion (pGEX-6P-3), GST cut off with PreScission protease, 11-aa N-terminal extension …) MDDKPNPEALSDSSERLFSFGVIADVQFADLEDGFNFQGTRRRYYRHSLLHLQGAIEDWNNESSMPCCVLQLGDIIDGYNAQYNASKKSLELVMDMFKRLKVPVHHTWGNAEFYNFSREYLTHSKLNTKFLEDQIVHHPETMPSEDYYAYHFVPFPKFRFILLDAYDLSVLGVDQSSPKYEQCMKILREHNPNTELNSPQGLSEPQFVQFNGGFSQEQLNWLNEVLTFSDTNQEKVVIVSHLPIYPDASDNVCLAWNYRDALAVIWSHECVVCFFAGHTHDGGYSEDPFGVYHVNLEGVIETAPDSQAFGTVHVYPDKMMLKGRGRVPDRIMNYKKERAFHC",7500 ± 700 µM,2.2 ± 0.2 s⁻¹,300 ± 30 M⁻¹ s⁻¹,–,–,–,–,–,–
"human ADPRibase-Mn (Homo sapiens; C253A/F37A/L196F) (protein, full length, 342 aa; expressed as GST fusion (pGEX-6P-3), GST cut off with PreScission protease, 11-aa N-terminal extension …) MDDKPNPEALSDSSERLFSFGVIADVQFADLEDGFNAQGTRRRYYRHSLLHLQGAIEDWNNESSMPCCVLQLGDIIDGYNAQYNASKKSLELVMDMFKRLKVPVHHTWGNHEFYNFSREYLTHSKLNTKFLEDQIVHHPETMPSEDYYAYHFVPFPKFRFILLDAYDLSVLGVDQSSPKYEQCMKILREHNPNTEFNSPQGLSEPQFVQFNGGFSQEQLNWLNEVLTFSDTNQEKVVIVSHLPIYPDASDNVALAWNYRDALAVIWSHECVVCFFAGHTHDGGYSEDPFGVYHVNLEGVIETAPDSQAFGTVHVYPDKMMLKGRGRVPDRIMNYKKERAFHC",–,–,–,460 ± 120 µM,16 ± 3 s⁻¹,35500 ± 4300 M⁻¹ s⁻¹,–,–,–
"human ADPRibase-Mn (Homo sapiens; C253A) (protein, full length, 342 aa; expressed as GST fusion (pGEX-6P-3), GST cut off with PreScission protease, 11-aa N-terminal extension …) MDDKPNPEALSDSSERLFSFGVIADVQFADLEDGFNFQGTRRRYYRHSLLHLQGAIEDWNNESSMPCCVLQLGDIIDGYNAQYNASKKSLELVMDMFKRLKVPVHHTWGNHEFYNFSREYLTHSKLNTKFLEDQIVHHPETMPSEDYYAYHFVPFPKFRFILLDAYDLSVLGVDQSSPKYEQCMKILREHNPNTELNSPQGLSEPQFVQFNGGFSQEQLNWLNEVLTFSDTNQEKVVIVSHLPIYPDASDNVALAWNYRDALAVIWSHECVVCFFAGHTHDGGYSEDPFGVYHVNLEGVIETAPDSQAFGTVHVYPDKMMLKGRGRVPDRIMNYKKERAFHC",–,–,–,200 ± 40 µM,8.9 ± 0.8 s⁻¹,44000 ± 9000 M⁻¹ s⁻¹,–,–,–
"human ADPRibase-Mn (Homo sapiens; Q27H) (protein, full length, 342 aa; expressed as GST fusion (pGEX-6P-3), GST cut off with PreScission protease, 11-aa N-terminal extension …) MDDKPNPEALSDSSERLFSFGVIADVHFADLEDGFNFQGTRRRYYRHSLLHLQGAIEDWNNESSMPCCVLQLGDIIDGYNAQYNASKKSLELVMDMFKRLKVPVHHTWGNHEFYNFSREYLTHSKLNTKFLEDQIVHHPETMPSEDYYAYHFVPFPKFRFILLDAYDLSVLGVDQSSPKYEQCMKILREHNPNTELNSPQGLSEPQFVQFNGGFSQEQLNWLNEVLTFSDTNQEKVVIVSHLPIYPDASDNVCLAWNYRDALAVIWSHECVVCFFAGHTHDGGYSEDPFGVYHVNLEGVIETAPDSQAFGTVHVYPDKMMLKGRGRVPDRIMNYKKERAFHC",2700 ± 200 µM,39 ± 12 s⁻¹,14000 ± 3000 M⁻¹ s⁻¹,–,–,–,–,–,–
"human ADPRibase-Mn (Homo sapiens) (protein, full length, 342 aa; expressed as GST fusion (pGEX-6P-3), GST cut off with PreScission protease, 11-aa N-terminal extension …) MDDKPNPEALSDSSERLFSFGVIADVQFADLEDGFNFQGTRRRYYRHSLLHLQGAIEDWNNESSMPCCVLQLGDIIDGYNAQYNASKKSLELVMDMFKRLKVPVHHTWGNHEFYNFSREYLTHSKLNTKFLEDQIVHHPETMPSEDYYAYHFVPFPKFRFILLDAYDLSVLGVDQSSPKYEQCMKILREHNPNTELNSPQGLSEPQFVQFNGGFSQEQLNWLNEVLTFSDTNQEKVVIVSHLPIYPDASDNVCLAWNYRDALAVIWSHECVVCFFAGHTHDGGYSEDPFGVYHVNLEGVIETAPDSQAFGTVHVYPDKMMLKGRGRVPDRIMNYKKERAFHC",350 ± 60 µM,50 ± 4 s⁻¹,150000 ± 30000 M⁻¹ s⁻¹,780 ± 200 µM,3.2 ± 0.2 s⁻¹,4000 ± 1000 M⁻¹ s⁻¹,2400 ± 300 µM,60 ± 13 s⁻¹,25000 ± 6000 M⁻¹ s⁻¹
"human ADPRibase-Mn (Homo sapiens; F210A) (protein, full length, 342 aa; expressed as GST fusion (pGEX-6P-3), GST cut off with PreScission protease, 11-aa N-terminal extension …) MDDKPNPEALSDSSERLFSFGVIADVQFADLEDGFNFQGTRRRYYRHSLLHLQGAIEDWNNESSMPCCVLQLGDIIDGYNAQYNASKKSLELVMDMFKRLKVPVHHTWGNHEFYNFSREYLTHSKLNTKFLEDQIVHHPETMPSEDYYAYHFVPFPKFRFILLDAYDLSVLGVDQSSPKYEQCMKILREHNPNTELNSPQGLSEPQFVQANGGFSQEQLNWLNEVLTFSDTNQEKVVIVSHLPIYPDASDNVCLAWNYRDALAVIWSHECVVCFFAGHTHDGGYSEDPFGVYHVNLEGVIETAPDSQAFGTVHVYPDKMMLKGRGRVPDRIMNYKKERAFHC",11000 ± 2600 µM,50 ± 12 s⁻¹,4000 ± 100 M⁻¹ s⁻¹,–,–,–,–,–,–
